Experimental findings from article PMC9864010 are described below.

For assay [1], the target named is AP205 cVLP displaying SpyCatcher (SpyC-cVLP) (Acinetobacter phage AP205). In words: covalent SpyTag/SpyCatcher coupling shown by reduced SDS-PAGE with densitometry; FL PCSK9-SpyT in 100 mM HEPES, 500 mM NaCl, pH 7 mixed 1:1.2 (cVLP subunit per antigen) with SpyC-cVLP, HEPES to 250 mM and L-Arginine to 500 mM, overnight at 4 °C; coupling band on reduced SDS-PAGE; coupling efficiency by densitometry.

Assay [2] addresses AP205 cVLP displaying SpyTag (SpyT-cVLP) (Acinetobacter phage AP205). In words: covalent SpyTag/SpyCatcher coupling shown by reduced SDS-PAGE with densitometry; SpyT-cVLP and SpyC-PCSK9 antigen mixed in a 1:2 molar ratio in PBS, pH 7.4, overnight at 4 °C; coupling band on reduced SDS-PAGE; coupling efficiency = coupled cVLP subunits/(coupled + uncoupled cVLP subunits) by densitometry.

In assay [1], “FL PCSK9-SpyT (muPCSK9(35–694) R221S-SpyT)” returned an antigen coupling efficiency (percentage of binding sites per cVLP conjugated to an antigen) of 40%.

Consider “SpyC-PCSK9(156–227) (from UniProt Q80W65 156-227)”, for which the antigen coupling efficiency (percentage of binding sites per cVLP conjugated to an antigen) in assay [2] worked out at 60%.

For “SpyC-PCSK9(210–226) (from UniProt Q80W65 210-226)”, the antigen coupling efficiency (percentage of binding sites per cVLP conjugated to an antigen) in assay [2] was 80%.
